Results from patent publication US20200010571A1 (Janssen / Centocor, published 2020).
Where “and” joins values, the source holds several entries; their conditions need not be identical. Equal entries are not always repeated. Values belong to the binder of their own block, whether it stands above or below them.

What was measured:
cynomolgus IL-17A [1] = target: T1, cynomolgus IL-17A (cynomolgus, UniProt Q16552 24-155 (human entry), limits assumed); test: SPR (Biacore 3000), mAb captured by anti-IgG Fc, antigen in solution, 1:1 Langmuir;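 further: run in PBS containing BSA and P20 at 25 °C, antigen injected at four dilutions, 3 min association, dissociation followed 20 min to 2 h, two independent experiments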
T1 construct: also called Cyno IL-17A
T1 chain: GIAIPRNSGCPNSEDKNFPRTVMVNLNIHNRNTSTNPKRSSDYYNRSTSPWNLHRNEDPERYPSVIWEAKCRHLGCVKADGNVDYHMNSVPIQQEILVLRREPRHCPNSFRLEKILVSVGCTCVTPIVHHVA

rat IL-17A [2] = target: T2, rat IL-17A (rat, UniProt Q61453 18-150); test: as above
T2 chain: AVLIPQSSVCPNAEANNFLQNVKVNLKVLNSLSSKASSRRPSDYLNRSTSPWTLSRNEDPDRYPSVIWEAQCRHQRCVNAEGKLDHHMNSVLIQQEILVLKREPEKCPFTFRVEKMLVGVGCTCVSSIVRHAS

mouse IL-17A [3] = target: T3, mouse IL-17A (mouse, UniProt Q62386 26-158); test: as above
T3 sequence: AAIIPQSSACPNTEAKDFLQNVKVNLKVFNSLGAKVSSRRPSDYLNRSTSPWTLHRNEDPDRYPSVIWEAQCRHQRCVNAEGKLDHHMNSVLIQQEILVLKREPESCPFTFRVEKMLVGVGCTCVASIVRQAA

[4] = target: protease-resistant form of human transmembrane TNF-α (lacks amino acids Val1 to Pro12) overexpressed by K2 … (human, UniProt P01375 1-233); test: cell-based or functional assay
[5] = target: T4, rhTNF-α (recombinant human, soluble) (human, UniProt P01375 77-233); test: cell-based or functional assay
[6] = target: T5, human IL-17A (recombinant) (human, UniProt Q16552 24-155); test: cell-based or functional assay
[7] = target: native (endogenous) human TNF-α (human, UniProt P01375 77-233); test: cell-based or functional assay
mouse TNF-α = target: T6, mouse TNF-α (mouse, UniProt P06804 80-235); test: SPR (Biacore 3000), mAb captured by anti-IgG Fc, antigen in solution
T6 sequence: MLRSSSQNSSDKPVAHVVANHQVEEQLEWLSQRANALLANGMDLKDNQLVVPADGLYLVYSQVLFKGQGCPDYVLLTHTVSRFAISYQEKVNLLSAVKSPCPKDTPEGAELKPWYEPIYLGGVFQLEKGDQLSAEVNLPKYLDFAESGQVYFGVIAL

rat TNF-α = target: T7, rat TNF-α (rat, UniProt P16599 80-235); test: as above
T7 sequence: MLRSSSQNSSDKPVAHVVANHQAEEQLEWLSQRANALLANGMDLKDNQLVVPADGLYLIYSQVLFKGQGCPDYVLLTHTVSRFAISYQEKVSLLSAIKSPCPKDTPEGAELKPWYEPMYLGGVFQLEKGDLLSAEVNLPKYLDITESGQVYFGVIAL

[8] = target: T4, rhTNF-α (recombinant human, soluble); test: cell-based or functional assay; remark: listed apart in the source
recombinant human IL-17F = target: T8, recombinant human IL-17F (human, UniProt Q96PD4 31-163); test: binding to rhIL-17A in the absence or presence of IL-17F
T8 sequence: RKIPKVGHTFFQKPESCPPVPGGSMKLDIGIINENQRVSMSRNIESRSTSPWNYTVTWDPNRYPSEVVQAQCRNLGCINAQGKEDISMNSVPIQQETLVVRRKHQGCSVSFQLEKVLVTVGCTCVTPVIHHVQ

[9] = target: T9, recombinant human IL-17A/F heterodimer (human, UniProt Q16552 24-155; Q96PD4 31-163); test: cell-based or functional assay
[10] = target: T9, recombinant human IL-17A/F heterodimer; test: cell-based or functional assay; remark: listed apart in the source
[11] = target: T4, rhTNF-α (recombinant human, soluble); test: SPR (Biacore 3000), mAb captured by anti-IgG Fc, antigen in solution, 25 C, 1:1 Langmuir
[12] = target: T5, human IL-17A (recombinant); test: as above
[13] = target: T4, rhTNF-α (recombinant human, soluble); test: cell-based or functional assay; remark: listed apart in the source
[14] = target: T5, human IL-17A (recombinant); test: competition ELISA: biotinylated rhIL-17A binding to plate-coated rhIL-17RA-Fc; Experiment 2; 95% CI 0.1474-0.1920
[15] = target: T5, human IL-17A (recombinant); test: competition ELISA: biotinylated rhIL-17A binding to plate-coated rhIL-17RA-Fc
cynomolgus TNF-α [16] = target: T10, cynomolgus TNF-α (cynomolgus, UniProt P79337 77-233); test: SPR (Biacore 3000), mAb captured by anti-IgG Fc, antigen in solution, 1:1 Langmuir
T10 construct: also called Cyno TNF-α

cynomolgus IL-17A [17] = target: T1, cynomolgus IL-17A; test: cell-based or functional assay
cynomolgus IL-17A [18] = target: T1, cynomolgus IL-17A; test: cell-based or functional assay
[19] = target: T5, human IL-17A (recombinant); test: competition ELISA: biotinylated rhIL-17A binding to plate-coated rhIL-17RA-Fc; Experiment 3; 95% CI 0.2433-0.2757
cynomolgus TNF-α [20] = target: T10, cynomolgus TNF-α; test: cell-based or functional assay
[21] = target: T5, human IL-17A (recombinant); test: competition ELISA: biotinylated rhIL-17A binding to plate-coated rhIL-17RA-Fc; Experiment 1; 95% CI 0.09343-0.1160
[22] = target: T5, human IL-17A (recombinant); test: cell-based or functional assay; remark: listed apart in the source
rat IL-17A [23] = target: T2, rat IL-17A; test: SPR (Biacore 3000)
mouse IL-17A [24] = target: T3, mouse IL-17A; test: SPR (Biacore 3000)

Kd (cynomolgus IL-17A [1]): 0.0236 nM and 0.0318 nM
koff (cynomolgus IL-17A [1]): 3.66e-05 s⁻¹ and 4.57e-05 s⁻¹
kon (cynomolgus IL-17A [1]): 1.55e+06 M⁻¹ s⁻¹ and 1.43e+06 M⁻¹ s⁻¹
Kd (rat IL-17A [2]): 15.4 nM
koff (rat IL-17A [2]): 0.00316 s⁻¹
kon (rat IL-17A [2]): 205000 M⁻¹ s⁻¹
Kd (mouse IL-17A [3]): 0.997 nM
koff (mouse IL-17A [3]): 0.00103 s⁻¹
kon (mouse IL-17A [3]): 1.03e+06 M⁻¹ s⁻¹
IC50 (µg/mL); Inhibition of native IL-17A mediated GROα production by NHDF; Experiment 1 [6]: 0.081 µg/mL
IC50 (µg/mL); Inhibition of native IL-17A mediated GROα production by NHDF; Experiment 2 [6]: 0.0648 µg/mL
IC50 (µg/mL); Inhibition of native IL-17A mediated GROα production by NHDF; Experiment 3 [6]: 0.0508 µg/mL
binding result (mouse TNF-α): no binding (tested: up to 100 nM)
binding result (rat TNF-α): no binding (tested: up to 100 nM)
binding result (recombinant human IL-17F): no binding
IC50 (µg/mL); Inhibition of IL-17A/F mediated GROα production by NHDF; Experiment 1 [9]: 0.549 µg/mL
IC50 (µg/mL); Inhibition of IL-17A/F mediated GROα production by NHDF; Experiment 2 [9]: 0.436 µg/mL
IC50 (µg/mL); Inhibition of IL-17A/F mediated GROα production by NHDF; Experiment 3 [9]: 0.392 µg/mL
IC50 (µg/mL); Inhibition of IL-17A/F mediated IL-6 production by NHDF; Experiment 1 [10]: 0.135 µg/mL
IC50 (µg/mL); Inhibition of IL-17A/F mediated IL-6 production by NHDF; Experiment 2 [10]: 0.174 µg/mL
IC50 (µg/mL); Inhibition of IL-17A/F mediated IL-6 production by NHDF; Experiment 3 [10]: 0.131 µg/mL
Kd [11]: 0.0188 nM and 0.0211 nM
koff [11]: 3.81e-05 s⁻¹ and 3.63e-05 s⁻¹
kon [11]: 2.02e+06 M⁻¹ s⁻¹ and 1.72e+06 M⁻¹ s⁻¹
Kd [12]: 0.022 nM and 0.0453 nM
koff [12]: 4.15e-05 s⁻¹ and 3.99e-05 s⁻¹
kon [12]: 1.88e+06 M⁻¹ s⁻¹ and 882000 M⁻¹ s⁻¹
IC50 [14]: 0.168 µg/mL
fold IC50 against the parental anti-IL-17A antibodies mAb 4782 and mAb 7206 [15]: ~3 fold
Kd (cynomolgus TNF-α [16]): 0.399 nM and 0.186 nM
koff (cynomolgus TNF-α [16]): 0.000103 s⁻¹ and 0.000127 s⁻¹
kon (cynomolgus TNF-α [16]): 259000 M⁻¹ s⁻¹ and 681000 M⁻¹ s⁻¹
IC50 (µg/mL); Inhibition of cyno IL-17A mediated GROα production by NHDF; Experiment 1 (cynomolgus IL-17A [17]): 0.299 µg/mL
IC50 (µg/mL); Inhibition of cyno IL-17A mediated GROα production by NHDF; Experiment 2 (cynomolgus IL-17A [17]): 0.329 µg/mL
IC50 (µg/mL); Inhibition of cyno IL-17A mediated GROα production by NHDF; Experiment 3 (cynomolgus IL-17A [17]): 0.137 µg/mL
IC50 (µg/mL); Inhibition of cyno IL-17A mediated IL-6 production by NHDF; Experiment 2 (cynomolgus IL-17A [18]): 0.0784 µg/mL
IC50 (µg/mL); Inhibition of cyno IL-17A mediated IL-6 production by NHDF; Experiment 3 (cynomolgus IL-17A [18]): 0.0583 µg/mL
IC50 [19]: 0.259 µg/mL
IC50 [21]: 0.104 µg/mL
IC50 (µg/mL); Inhibition of native IL-17A mediated IL-6 production by NHDF; Experiment 1 [22]: 0.0501 µg/mL
IC50 (µg/mL); Inhibition of native IL-17A mediated IL-6 production by NHDF; Experiment 2 [22]: 0.0445 µg/mL
IC50 (µg/mL); Inhibition of native IL-17A mediated IL-6 production by NHDF; Experiment 3 [22]: 0.049 µg/mL
B1: mAb 9762 (bispecific anti-TNF-α/IL-17A antibody, IgG1) (bispecific antibody)
heavy 1: not shown
light 1: not shown
heavy 2: not shown
light 2: QSVLTQPPSVSVAPGQTARISCSGDNLGDKYANWYQQKPGQAPVLVIYDDIDRPSGIPERFSGSNSGNTATLTISGTQAEDEADYYCGSYDFFLGMIVFGGGTKLTVLGQPKAAPSVTLFPPSSEELQANKATLVCLISDFYPGAVTVAWKADSSPVKAGVETTTPSKQSNNKYAASSYLSLTPEQWKSHRSYSCQVTHEGSTVEKTVAPTECS
IC50 (nM); KYM-1D4 cells, cytotoxicity mediated by membrane bound human TNF-α; Experiment 1 [4]: 0.82 nM
IC50 (nM); KYM-1D4 cells, cytotoxicity mediated by membrane bound human TNF-α; Experiment 2 [4]: 0.966 nM
IC50 (nM); KYM-1D4 cells, cytotoxicity mediated by membrane bound human TNF-α; Experiment 3 [4]: 0.425 nM
fold of IC50 against the parental anti-TNF-α antibodies mAb 9809 and mAb 6696; rhTNF-α-induced cytotoxicity in WEHI-164 cells [5]: ~3 fold
IC50 (nM); KYM-1D4 cells, cytotoxicity mediated by endogenous soluble TNF-α; Experiment 1 [7]: 0.346 nM
IC50 (nM); KYM-1D4 cells, cytotoxicity mediated by endogenous soluble TNF-α; Experiment 2 [7]: 0.327 nM
IC50 (nM); KYM-1D4 cells, cytotoxicity mediated by endogenous soluble TNF-α; Experiment 3 [7]: 0.197 nM
IC50 (nM); WEHI-164 cells cytotoxicity mediated by soluble rhTNF-α; Experiment 1 [8]: 1.28 nM
IC50 (nM); WEHI-164 cells cytotoxicity mediated by soluble rhTNF-α; Experiment 2 [8]: 2.07 nM
IC50 (nM); WEHI-164 cells cytotoxicity mediated by soluble rhTNF-α; Experiment 3 [8]: 0.631 nM
IC50 (nM); KYM-1D4 cells, cytotoxicity mediated by soluble rhTNF-α; Experiment 1 [13]: 0.152 nM
IC50 (nM); KYM-1D4 cells, cytotoxicity mediated by soluble rhTNF-α; Experiment 2 [13]: 0.343 nM
IC50 (nM); KYM-1D4 cells, cytotoxicity mediated by soluble rhTNF-α; Experiment 3 [13]: 0.169 nM
IC50 (nM); Inhibition of cyno TNF-α mediated cytotoxicity in WEHI-164 cells; Experiment 1 (cynomolgus TNF-α [20]): 4.42 nM
IC50 (nM); Inhibition of cyno TNF-α mediated cytotoxicity in WEHI-164 cells; Experiment 2 (cynomolgus TNF-α [20]): 20.6 nM
IC50 (nM); Inhibition of cyno TNF-α mediated cytotoxicity in WEHI-164 cells; Experiment 3 (cynomolgus TNF-α [20]): 9.29 nM

binding result (rat IL-17A [23]): binds
binding result (mouse IL-17A [24]): binds
Kd (cynomolgus IL-17A [1]): 0.0286 nM
koff (cynomolgus IL-17A [1]): 3.68e-05 s⁻¹
kon (cynomolgus IL-17A [1]): 1.29e+06 M⁻¹ s⁻¹
Kd [12]: 0.0309 nM
koff [12]: 4.79e-05 s⁻¹
kon [12]: 1.55e+06 M⁻¹ s⁻¹
B2: mAb 6785 (original parental anti-IL-17A mAb) (antibody, V domains shown)
VH: QVQLLESGGGLVQPGGSLRLSCAASGFTFSSYAMSWVRQAPGKGLEWVSTISLTSGFTYYADSVKGRFTISRDNSKNTLYLQMNSLRAEDTAVYYCARQLTLDVWGQGTLVTVSS
VL: QSVLTQPPSVSVAPGQTARISCSGDNLGDKYANWYQQKPGQAPVLVIYDDIDRPSGIPERFSGSNSGNTATLTISGTQAEDEADYYCGSYDFFLGMIVFGGGTKLTVL
